Reference: article PMC10987521, “An all-in-one tetrazine reagent for cysteine-selective labeling and bioorthogonal activable prodrug construction” (Nature Communications, 2024)
Like-named read-outs stand apart in the source and are kept apart here.

How the values were obtained:
[1] = Nano-structure characterization of peptide conjugates (Tyndall effect, DLS, zeta potential, TEM); type: physicochemical; details: 50 μM in H2O (2% DMSO), sonicated 10 min; mean of 3 measurements
Procedure: The second-order rate constant for the labeling reactions between tetrazine 1 and Cys was determined at 25 °C in PB (30% MeCN, 20 mM, pH 8.0) under second-order conditions using a 6000+ (Quawell) UV-Vis spectrophotometer. The concentrations of cysteine and tetrazine were identical. The specific difference in absorption wavelength (300 nm) between 1 and Cys-1 was measured over time. The second-order rate constant k2 was calculated from the slope of a plot of (1/c – 1/c0) versus time.
5. Competitive labeling reaction with other nucleophilic amino acids
For the competitive labeling experiment, 10 equiv. (2 mM) of N-Fmoc-Lys, N-Fmoc-Arg, Ser, Tyr, and 1.3 equiv. […] The resulting solution was maintained at 25 °C and monitored by LC –MS. […]
Each voTz analogue (1.1 equiv.) was added to a 0.25 mL vial containing solvent. […] The chromatogram peak areas of all relevant Cys -containing species were integrated, and the yiel d was determined using the following equation: Yield (%) = Iproduct/(Istarting + Iproduct + Ioxidation + Iside product) × 100, where Istarting, Iproduct, Ioxidation, and Iside product respectively represent the average ion counts of remaining starting material, product, oxidized starting material and any side product, if present 2. […]
DLS analyses and particle zeta potential values were determined using a Nano ZS ZEN 3690 instrument (Malvern […]

[2] = type: physicochemical; details: PBS pH 7.4, 10% DMSO, 37 °C; for intact (%) under 10 mM GSH at 2 μM: 520 nm HPLC–MS; for intact (%) under 10 mM GSH: 520 nm HPLC–MS (PyTz UV–Vis)
Procedure: All tetrazine compounds were diluted to a concentration of 50 μM or 2 μM using PBS (10% DMSO, pH 7.4). A stock solution of GSH (400 mM in PBS) was then added to achieve a final concentration of 10 mM. The mixture was homogenized and incubated at 37 °C for 12 h. The stability of the compounds (including all peptide conjugates and PmTz) was assessed by measuring the decrease in peak area at 520 nm (with the initial peak area at 0 min defined as 100%). This measurement was monitored by HPLC–MS. Similarly, the stability of PyTz was determined by monitoring the decrease in peak intensity at 520 nm using UV–Vis. Statistical analysis was performed on data from three replicates to calculate the mean and standard deviation. […]
Response 1: We appreciate your comment. We conducted stability tests on RGD-Dox and RGD-SN-38 in 10 mM GSH at a concentration of 2 μM, which is below the critical micelle concentrations. After incubating at 37 °C for 12 hours, we observed that 95% of RGD-Dox and 85% of RGD-SN-38 remained intact. This stability is slightly less than […]
the observed stability is intrinsic to the peptide-drug conjugates, with a slight enhancement due to micelle […]
concentrations, after 12 hours of incubation at 37 °C (Figure S46). […]
intrinsic to the PDCs, with a slight enhancement by micelle formation.
Details of these experiments have been included in the Supplementary Information (Page S42), as outlined below:
RGD-Dox and RGD-SN-38 were diluted to a concentration of 2 μM using PBS (10% DMSO, pH 7.4). A stock solution of GSH (400 mM in PBS) was then added to achieve a final concentration of 10 mM. The mixture was homogenized and incubated at 37 °C for 12 hours. Stability was assessed by measuring the decrease in peak area at 520 nm (with the initial peak area at 0 min defined as 100%). This measurement was monitored by HPLC–MS. Statistical analysis was performed on data from three replicates to calculate the mean and standard deviation.

LX2 cells = test: Cell uptake by fluorescence imaging, LX2; type: cell-based, Human; details: αvβ3-negative, 10 μM, 2 h

In the case of `COc1cccc2c1C(=O)c1c(O)c3c(c(O)c1C2=O)C[C@@](O)(C(=O)CO)C[C@@H]3O[C@H]1C[C@H](NC(=O)OCc2nnc(CCSC[C@@H]3NC(=O)[C@@H](Cc4ccc(O)cc4)NC(=O)[C@H](CC(=O)O)NC(=O)CNC(=O)[C@H](CCCNC(=N)N)NC3=O)nn2)[C@H](O)[C@H](C)O1` [RGD-Dox], the “average particle diameter (DLS)” value [1] is reported as 168 nm, the “intact (%) under 10 mM GSH at 2 μM” value ([2]; 1 h, Data 1, 2 μM (below CMC)) is reported as 98% and the “intact (%) under 10 mM GSH” value ([2]; 1 h, Data 1, 50 μM) is reported as 98.414%. The “intact (%) under 10 mM GSH at 2 μM” value ([2]; 1 h, Data 2, 2 μM (below CMC)) was 96.5%, the “intact (%) under 10 mM GSH” value ([2]; 1 h, Data 2, 50 μM) was 98.1% and the “intact (%) under 10 mM GSH at 2 μM” value ([2]; 1 h, Data 3, 2 μM (below CMC)) was 98%. The “intact (%) under 10 mM GSH” value ([2]; 1 h, Data 3, 50 μM) was 97%, the “intact (%) under 10 mM GSH at 2 μM” value ([2]; 3 h, Data 1, 2 μM (below CMC)) was 93.4% and the “intact (%) under 10 mM GSH” value ([2]; 3 h, Data 1, 50 μM) was 95.9241%. The “intact (%) under 10 mM GSH at 2 μM” value ([2]; 3 h, Data 2, 2 μM (below CMC)) was 94.4%, the “intact (%) under 10 mM GSH” value ([2]; 3 h, Data 2, 50 μM) was 96.1928% and the “intact (%) under 10 mM GSH at 2 μM” value ([2]; 3 h, Data 3, 2 μM (below CMC)) was 94.5%. The “intact (%) under 10 mM GSH” value ([2]; 3 h, Data 3, 50 μM) was 97.3114%, the “intact (%) under 10 mM GSH at 2 μM” value ([2]; 5 h, Data 1, 2 μM (below CMC)) was 94.7% and the “intact (%) under 10 mM GSH at 2 μM” value ([2]; 5 h, Data 2, 2 μM (below CMC)) was 95%. For the same compound, the “intact (%) under 10 mM GSH at 2 μM” value ([2]; 5 h, Data 3, 2 μM (below CMC)) was 94.9%, the “intact (%) under 10 mM GSH at 2 μM” value ([2]; 8 h, Data 1, 2 μM (below CMC)) was 95% and the “intact (%) under 10 mM GSH” value ([2]; 8 h, Data 1, 50 μM) was 93.681%. For the same compound, the “intact (%) under 10 mM GSH at 2 μM” value ([2]; 8 h, Data 2, 2 μM (below CMC)) was 95.7%, the “intact (%) under 10 mM GSH” value ([2]; 8 h, Data 2, 50 μM) was 93.4607% and the “intact (%) under 10 mM GSH at 2 μM” value ([2]; 8 h, Data 3, 2 μM (below CMC)) was 96%. The “intact (%) under 10 mM GSH” value ([2]; 8 h, Data 3, 50 μM) was 95.7%, the “remained intact with 10 mM GSH at 2 μM” value ([2]; 12 h, 2 μM (below CMC), HPLC–MS 520 nm, mean of n = 3) was 95% and the “remained intact with 10 mM GSH” value ([2]; 12 h, 50 μM, HPLC–MS peak area 520 nm, mean of n = 3) was 96%. For the same compound, the “intact (%) under 10 mM GSH at 2 μM” value ([2]; 12 h, Data 1, 2 μM (below CMC)) was 96%, the “intact (%) under 10 mM GSH” value ([2]; 12 h, Data 1, 50 μM) was 94.9% and the “intact (%) under 10 mM GSH at 2 μM” value ([2]; 12 h, Data 2, 2 μM (below CMC)) was 95.4%. The “intact (%) under 10 mM GSH” value ([2]; 12 h, Data 2, 50 μM) was 97.6967%, the “intact (%) under 10 mM GSH at 2 μM” value ([2]; 12 h, Data 3, 2 μM (below CMC)) was 97% and the “intact (%) under 10 mM GSH” value ([2]; 12 h, Data 3, 50 μM) was 96.3405%. The “cellular fluorescence (uptake) in LX2 cells” value (LX2 cells) was “negligible fluorescence”.
